The values below come from patent US20150203577A1 (Chugai, published 2015).

Read-outs that look alike come from different tables or passages of the source.

Usually Kd stands for a measure of binding affinity in units of concentration.

For assay [1], the target named is T1, mouse FcγRII extracellular domain, C-terminally His-tagged (mouse, UniProt P08101 30-210).
T1 construct: the whole entry is named; also called mFcγRII; mFcgRII
T1 sequence: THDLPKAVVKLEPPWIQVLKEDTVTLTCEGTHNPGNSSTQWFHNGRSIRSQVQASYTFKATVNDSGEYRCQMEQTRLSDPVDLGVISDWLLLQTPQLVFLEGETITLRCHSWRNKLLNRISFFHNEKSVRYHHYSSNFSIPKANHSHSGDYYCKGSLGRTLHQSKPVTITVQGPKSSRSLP
Briefly: SPR Biacore T200, KD ratio. From the text: (§1) The antibody H chain variable region used was the variable region H237 (SEQ ID NO: 1) of the H chain VH3-IgG1 of the anti-IL-6 receptor antibody Fv4-IgG1 described in WO2009/125825. The antibody L chain commonly used was the L chain MRAL-k0 (SEQ ID NO: 2) of the anti-IL-6 receptor antibody tocilizumab. H237-MB476/MRAL-k0 and H237-MB515/MRAL-k0 were used as templates to introduce new alterations. These variants were expressed and purified by the method of Reference Example 1 and evaluated for their binding to mFcγRII and mFcγRIII by the method of Reference Example 2 using Biacore T200.
(§2) Each altered antibody was analyzed for its interaction with each Fcγ receptor prepared above using Biacore T100 (GE Healthcare Japan Corp.), Biacore T200 (GE Healthcare Japan Corp.), Biacore A100, or Biacore 4000. The running buffer used was HBS-EP+ (GE Healthcare Japan Corp.). The assay temperature was set to 25° C. The sensor chips used were chips prepared by immobilizing Protein L (ACTIGEN or BioVision) onto Series S Sensor Chip CM5 (GE Healthcare Japan Corp.) or Series S Sensor Chip CM4 (GE Healthcare Japan Corp.) by the amine coupling method.
(§3) In order to calculate the KD value of each altered antibody for FcγR, kinetic analysis was conducted according to the following method: first, the antibody of interest was captured onto any of these chips and allowed to interact with mFcγR diluted with a running buffer. For the obtained sensorgram, the assay results were globally fit into the 1:1 Langmuir binding model using Biacore Evaluation Software to calculate an association rate constant ka (L/mol/s) and a dissociation rate constant kd (1/s). From these values, the dissociation constant KD (mol/L) was calculated.

Assay [2] has as its target T2, mouse FcγRIII extracellular domain, C-terminally His-tagged (mouse, UniProt P08508 31-215).
T2 construct: the whole entry is named; also called mFcγRIII; mFcgRIII
T2 chain: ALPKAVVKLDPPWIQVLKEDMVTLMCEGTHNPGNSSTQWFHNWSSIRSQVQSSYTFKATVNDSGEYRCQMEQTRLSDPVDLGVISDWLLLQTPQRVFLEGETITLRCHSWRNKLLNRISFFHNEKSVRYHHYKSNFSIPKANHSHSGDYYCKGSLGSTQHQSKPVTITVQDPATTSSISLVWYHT
As to the kind of experiment: SPR Biacore T200, KD ratio.
Text: as §1, §2, §3
(In general: Surface plasmon resonance follows binding to a sensor surface in real time, without labels.)

Assay [3] has as its target T1, mouse FcγRII extracellular domain, …. Briefly: SPR Biacore T200, KD ratio, template MB476.
Text: as §1, §2, §3

The target of assay [4] is T2, mouse FcγRIII extracellular domain, …. As to the kind of experiment: SPR Biacore T200, KD ratio, template MB476.
Text: as §1, §2, §3

Assay [5] addresses T3, mouse FcγRII extracellular domain with C-terminal His tag (mouse, UniProt P08101 30-210).
T3 construct: Made on the basis of NCBI NP-034317.1; also called mFcγRII; mFcgRII
T3 sequence: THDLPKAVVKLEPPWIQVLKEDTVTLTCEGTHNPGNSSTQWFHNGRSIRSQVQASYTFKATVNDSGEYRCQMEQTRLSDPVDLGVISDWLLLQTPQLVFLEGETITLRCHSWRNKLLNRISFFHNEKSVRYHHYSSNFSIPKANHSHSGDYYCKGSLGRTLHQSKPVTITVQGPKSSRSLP
Briefly: SPR Biacore T200; KD mFcγRIII / KD mFcγRII.

The target of assay [6] is T4, mouse FcγRIII extracellular domain with C-terminal His tag (mouse, UniProt P08508 31-215).
T4 construct: Made on the basis of NCBI NP-034318.2; also called mFcγRIII; mFcgRIII
T4 chain: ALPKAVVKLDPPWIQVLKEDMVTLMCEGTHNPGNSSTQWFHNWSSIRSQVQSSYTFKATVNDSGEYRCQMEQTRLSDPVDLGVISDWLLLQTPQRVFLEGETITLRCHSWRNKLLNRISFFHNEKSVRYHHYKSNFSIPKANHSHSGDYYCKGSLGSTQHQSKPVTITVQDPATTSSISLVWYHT
As to the kind of experiment: SPR Biacore T200.

Assay [7] deals with T3, mouse FcγRII extracellular domain with …. Briefly: SPR Biacore T200.
Assay [8] concerns the target T4, mouse FcγRIII extracellular domain with …. Briefly: SPR Biacore T200. The procedure: as §2, §3
For assay [9], the target named is T3, mouse FcγRII extracellular domain with …. Briefly: SPR Biacore T200. The procedure: as §2, §3
The source holds these as a separate data set.

The target in assay [10] is T4, mouse FcγRIII extracellular domain with …. Briefly: SPR Biacore T200.
Assay [11] has as its target T3, mouse FcγRII extracellular domain with …. Briefly: SPR Biacore T200. The source holds these as a separate data set.

B1: H237-MB476/MRAL-k0 (antibody, mouse IgG1, kappa)
heavy: QVQLQESGPGLVKPSETLSLTCAVSGHSISHDHAWSWVRQPPGEGLEWIGFISYSGITNYNPSLQGRVTISRDNSKNTLYLQMNSLRAEDTAVYYCARSLARTTAMDYWGEGTLVTVSSAKTTPPSVYPLAPGSAAQTNSMVTLGCLVKGYFPEPVTVTWNSGSLSSGVHTFPAVLQSDLYTLSSSVTVPSSTWPSETVTCNVAHPASSTKVDKKIVPRDCGCKPCICQPNEVEEVFIFPPKPKDVLTITLTPKVTCVVVDISKDDPEVQFSWFVDDVEVHTAQTQPREEQFNSTFRSVSELPIMHQDWLNGKEFKCRVNSAAFPAPIEKTISKTKGRPKAPQVYTIPPPKEQMAKDKVSLTCMITDFFPEDITVEWQWNGQPAENYKNTQPIMDTDGSYFVYSKLNVQKSNWEAGNTFTCSVLHEGLHNHHTEKSLSHSPGK
light: not shown
notes: Template; copies: 2 + 2
B1: in assay [1], the “relative mFcγRII-binding activity (mIgG1 = 1)” value is 261 fold. The “relative mFcγRIII-binding activity (mIgG1 = 1)” value in assay [2] amounted to 2.6 fold. In addition, the “relative mFcγRII-binding activity (template = 1)” value in [3] turned out to be 1 fold. In assay [4], the “relative mFcγRIII-binding activity (template = 1)” value was 1 fold.

B2: H237-MB526/MRAL-k0 (antibody, mouse IgG1, kappa)
heavy: QVQLQESGPGLVKPSETLSLTCAVSGHSISHDHAWSWVRQPPGEGLEWIGFISYSGITNYNPSLQGRVTISRDNSKNTLYLQMNSLRAEDTAVYYCARSLARTTAMDYWGEGTLVTVSSAKTTPPSVYPLAPGSAAQTNSMVTLGCLVKGYFPEPVTVTWNSGSLSSGVHTFPAVLQSDLYTLSSSVTVPSSTWPSETVTCNVAHPASSTKVDKKIVPRDCGCKPCICQPNEVEEVFIFPPKPKDVLTITLTPKVTCVVVDISKDDPEVQFSWFVDDVEVHTAQTQPREEQFNLTFRSVSELPIMHQDWLNGKEFKCRVNSAAFPAPIEKTISKTKGRPKAPQVYTIPPPKEQMAKDKVSLTCMITDFFPEDITVEWQWNGQPAENYKNTQPIMDTDGSYFVYSKLNVQKSNWEAGNTFTCSVLHEGLHNHHTEKSLSHSPGK
light: not shown
notes: copies: 2 + 2
In the case of B2, in [1], the “relative mFcγRII-binding activity (mIgG1 = 1)” value was determined as 232 fold. Also, in assay [2], the “relative mFcγRIII-binding activity (mIgG1 = 1)” value came to 8.5 fold. In addition, in assay [3], the “relative mFcγRII-binding activity (template = 1)” value amounted to 0.89 fold. The “relative mFcγRIII-binding activity (template = 1)” value in [4] worked out at 3.23 fold.

B3: H237-MB425/MRAL-k0 (antibody, mouse IgG1, kappa)
heavy: QVQLQESGPGLVKPSETLSLTCAVSGHSISHDHAWSWVRQPPGEGLEWIGFISYSGITNYNPSLQGRVTISRDNSKNTLYLQMNSLRAEDTAVYYCARSLARTTAMDYWGEGTLVTVSSAKTTPPSVYPLAPGSAAQTNSMVTLGCLVKGYFPEPVTVTWNSGSLSSGVHTFPAVLQSDLYTLSSSVTVPSSTWPSETVTCNVAHPASSTKVDKKIVPRDCGCKPCICIPAEVEDVFIFPPKPKDVLTITLTPKVTCVVVDISKDDPEVQFSWFVDDVEVHTAQTQPREEQFNSTFRSVSELPIMHQDWLNGKEFKCRVNSAAFPAPIEKTISKTKGRPKAPQVYTIPPPKEQMAKDKVSLTCMITDFFPEDITVEWQWNGQPAENYKNTQPIMDTDGSYFVYSKLNVQKSNWEAGNTFTCSVLHEGLHNHHTEKSLSHSPGK
light: not shown
notes: mIgG1 with T230I/V231P/P232A/S238E/S239D (EU); template T7; copies: 2 + 2
As to B3, the “relative I/A (mFcγRII selectivity) (mIgG1 = 1)” value in assay [5] worked out at 35.2. In addition, the “relative mFcγRIII-binding activity (mIgG1 = 1)” value in assay [6] and in assay [10] was 5.5 each time. The “relative mFcγRII-binding activity (mIgG1 = 1)” value in [7] and in assay [11] was 194 in each case. For the same molecule, the values for the Kd in assay [8] and in assay [9] were 51 nM and 1.08 nM, respectively.

B4: H237-MB528/MRAL-k0 (antibody, mouse IgG1, kappa)
heavy: QVQLQESGPGLVKPSETLSLTCAVSGHSISHDHAWSWVRQPPGEGLEWIGFISYSGITNYNPSLQGRVTISRDNSKNTLYLQMNSLRAEDTAVYYCARSLARTTAMDYWGEGTLVTVSSAKTTPPSVYPLAPGSAAQTNSMVTLGCLVKGYFPEPVTVTWNSGSLSSGVHTFPAVLQSDLYTLSSSVTVPSSTWPSETVTCNVAHPASSTKVDKKIVPRDCGCKPCICQPNEVEEVFIFPPKPKDVLTITLTPKVTCVVVDISKDDPEVQFSWFVDDVEVHTAQTQPREEQFNLTFRSVSELPIMHQDWLNGKEFKCRVNSDAFPAPIEKTISKTKGRPKAPQVYTIPPPKEQMAKDKVSLTCMITDFFPEDITVEWQWNGQPAENYKNTQPIMDTDGSYFVYSKLNVQKSNWEAGNTFTCSVLHEGLHNHHTEKSLSHSPGK
light: not shown
notes: copies: 2 + 2
As for B4, the “relative mFcγRII-binding activity (mIgG1 = 1)” value in assay [1] worked out at 375 fold. The “relative mFcγRIII-binding activity (mIgG1 = 1)” value in assay [2] turned out to be 14.6 fold. Besides, the “relative mFcγRII-binding activity (template = 1)” value in [3] is 1.44 fold. For the same molecule, the “relative mFcγRIII-binding activity (template = 1)” value in assay [4] stood at 5.52 fold.

B5: H237-MB432/MRAL-k0 (antibody, mouse IgG1, kappa)
heavy: QVQLQESGPGLVKPSETLSLTCAVSGHSISHDHAWSWVRQPPGEGLEWIGFISYSGITNYNPSLQGRVTISRDNSKNTLYLQMNSLRAEDTAVYYCARSLARTTAMDYWGEGTLVTVSSAKTTPPSVYPLAPGSAAQTNSMVTLGCLVKGYFPEPVTVTWNSGSLSSGVHTFPAVLQSDLYTLSSSVTVPSSTWPSETVTCNVAHPASSTKVDKKIVPRDCGCKPCICQPNEVEDVFIFPPKPKDVLTITLTPKVTCVVVDISKDDPEVQFSWFVDDVEVHTAQTQPREEQFNSTFRSVSELPIMHQDWLNGKEFKCRVNSAAFPAPIEKTISKTKGRPKAPQVYTIPPPKEQMAKDKVSLTCMITDFFPEDITVEWQWNGQPAENYKNTQPIMDTDGSYFVYSKLNVQKSNWEAGNTFTCSVLHEGLHNHHTEKSLSHSPGK
light: not shown
notes: mIgG1 with T230Q/V231P/P232N/S238E/S239D (EU); template T9; copies: 2 + 2
Take B5: the “I/A (mFcγRII selectivity)” value in [5] is 43.1. The “relative I/A (mFcγRII selectivity) (mIgG1 = 1)” value in [5] came out at 32.2. Also, the “relative mFcγRIII-binding activity (mIgG1 = 1)” value in assay [6] and in assay [10] was 10.7 each time. The “relative mFcγRII-binding activity (mIgG1 = 1)” value in assay [7] and in assay [11] was 343 throughout. In addition, the Kd was determined as 26.4 nM in assay [8], 0.613 nM in [9], 26.4 nM in assay [10] and 0.613 nM in assay [11].

B6: H237-MB527/MRAL-k0 (antibody, mouse IgG1, kappa)
heavy: QVQLQESGPGLVKPSETLSLTCAVSGHSISHDHAWSWVRQPPGEGLEWIGFISYSGITNYNPSLQGRVTISRDNSKNTLYLQMNSLRAEDTAVYYCARSLARTTAMDYWGEGTLVTVSSAKTTPPSVYPLAPGSAAQTNSMVTLGCLVKGYFPEPVTVTWNSGSLSSGVHTFPAVLQSDLYTLSSSVTVPSSTWPSETVTCNVAHPASSTKVDKKIVPRDCGCKPCICQPNEVEEVFIFPPKPKDVLTITLTPKVTCVVVDISKDDPEVQFSWFVDDVEVHTAQTQPREEQFNLTFRSVSELPIMHQDWLNGKEFKCRVDSAAFPAPIEKTISKTKGRPKAPQVYTIPPPKEQMAKDKVSLTCMITDFFPEDITVEWQWNGQPAENYKNTQPIMDTDGSYFVYSKLNVQKSNWEAGNTFTCSVLHEGLHNHHTEKSLSHSPGK
light: not shown
notes: also called MG527; copies: 2 + 2
As to B6, the “relative mFcγRII-binding activity (mIgG1 = 1)” value in assay [1] turned out to be 273 fold. Moreover, in assay [2], the “relative mFcγRIII-binding activity (mIgG1 = 1)” value is 5.5 fold. For the same molecule, the “relative mFcγRII-binding activity (template = 1)” value in assay [3] was determined as 1.05 fold. The “relative mFcγRIII-binding activity (template = 1)” value in assay [4] was determined as 2.09 fold.
